Key:
human TrkB-His = biological target: T1, human TrkB-His (human, UniProt Q16620 32-430); experiment: BLI off-rate, mAb captured
T1 construct: in-house fusion of the TrkB ECD with poly-His, HEK293; also called huTrkB-His; hTrkB-His; not shown: poly-His tag

[1] = biological target: TrkB in PathHunter eXpress TrkB Functional Assay cells (modified U2OS); experiment: cell-based or functional assay
human TrkA-His = human TrkA-His (human, UniProt P04629 33-417, limits assumed); experiment: ELISA
human TrkC-His = human TrkC-His (human, UniProt Q16288 32-429); experiment: ELISA
mouse TrkB-ECD-GST = biological target: T2, mouse TrkB-ECD-GST (mouse, UniProt P15209 32-429); experiment: ELISA
T2 construct: extracellular domain; in-house fusion, HEK293; also called mTrkB-ECD-GST; mTrkB (ELISA); not shown: glutathione S-transferase (GST) fusion part

human TrkA-His, sequence (P04629 33-417 limits assumed): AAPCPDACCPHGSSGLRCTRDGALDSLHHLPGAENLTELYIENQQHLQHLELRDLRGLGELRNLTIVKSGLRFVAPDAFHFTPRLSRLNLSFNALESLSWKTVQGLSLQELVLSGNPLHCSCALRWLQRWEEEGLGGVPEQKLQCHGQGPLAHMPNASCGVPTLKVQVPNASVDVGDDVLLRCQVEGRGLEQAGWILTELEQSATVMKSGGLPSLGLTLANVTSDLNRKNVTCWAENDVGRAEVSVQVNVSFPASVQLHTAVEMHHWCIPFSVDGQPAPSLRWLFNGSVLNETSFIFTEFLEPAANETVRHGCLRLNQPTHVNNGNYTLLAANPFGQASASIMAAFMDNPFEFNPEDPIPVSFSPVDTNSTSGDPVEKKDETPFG

B1: anti-TrkB clone 4F03 (antibody, V domains shown)
VH: EVQLVQSGAEVKKPGESLKISCKGSGYSFTSYWIGWVRQMPGKGLEWMGIIYPGDSDTRYSPSFQGQVTISADKSISTAYLQWSSLKASDTAMYYCASWGMDVWGQGTLVTVSS
VL: QPVLTQPPSASGTPGQRVTISCSGSSSNIGTHTVNWYQQFPGTAPKLLMYSTFQRPSGVPDRFSGSKSGTSASLAISGLQSEDEADYYCAAWDDSLNGPVFGGGTQLTVL
notes: full-length IgG
koff (human TrkB-His): 0.00639 s⁻¹
TrkB activation (EC50) [1]: 0.041 µg/mL
binding result (human TrkA-His): no binding (tested: up to 10 µg/mL)
binding result (human TrkC-His): no binding (tested: up to 10 µg/mL)

B2: anti-TrkB clone 3A05 (antibody, V domains shown)
VH: QVQLVESGAEVKKPGESLKISCKGSGYSFTTYWIAWVRQMPGKGLEWMGIIYPGDSDTRYSPSFQGQVTISADKSISTAYLQWSSLKASDTAMYYCARLGGGMDVWGQGTMVTVSS
VL: QAGLTQPPSASGTPGQRVTISCSGSSSNIGSNTVSWYRQIPGTAPKFLLYGNNQRPSGVPARFSGSKSGTSASLAVDGLQSDDEADYYCAAWDDSLSGYVFGTGTKLTVL
notes: full-length IgG
koff (human TrkB-His): 0.00435 s⁻¹
binding result (mouse TrkB-ECD-GST): binds
TrkB activation (EC50) [1]: 0.006 µg/mL
binding result (human TrkA-His): no binding (tested: up to 10 µg/mL)
binding result (human TrkC-His): no binding (tested: up to 10 µg/mL)

B3: anti-TrkB clone 3B04 (antibody, V domains shown)
VH: QVQLVQSGAEVKKPGEPLKISCKGSGYSFPTYWIAWVRQMPGKGLEWMGIIYPGDSDTRYSPSFQGQVTISADKSISTAYLQWGSLRASDTAMYYCARGGSGLDYWGQGTLVTVSS
VL: SYELMQPPSVSVSPGQTASITCSGDKLGTKYVSWYQQKPGQSPVLVIYQDSKRPSGIPERFSGSNSGNTATLTISGTQAMDEADYYCQAWDSSTVVFGGGTKLTVL
notes: full-length IgG
koff (human TrkB-His): 0.00802 s⁻¹
binding result (mouse TrkB-ECD-GST): binds
TrkB activation (EC50) [1]: 0.1 µg/mL
binding result (human TrkA-His): no binding (tested: up to 10 µg/mL)
binding result (human TrkC-His): no binding (tested: up to 10 µg/mL)

B4: anti-TrkB clone 6B04 (antibody, V domains shown)
VH: QVQLVQSGAEVKKPGESLKISCKGSGYSFTSYWIGWVRQMPGKGLEWMGIIYPGDSDTRYSPSFQGQVTISADKSISTAYLQWSSLKASDTAIYYCARLGGAMDVWGQGTLVTVSS
VL: SYELMQPPSLSVSPGQTASITCSGDKLGDKYVSWYQQRPGQSPVLVMYQDKKRPSGIPKRFSGSNSGNTATLTISGTQAMDEADYYCAAWDDSLNGYYVFGTGTQLTVL
notes: full-length IgG
koff (human TrkB-His): 0.00678 s⁻¹
binding result (mouse TrkB-ECD-GST): binds
TrkB activation (EC50) [1]: 0.039 µg/mL
binding result (human TrkA-His): no binding (tested: up to 10 µg/mL)
binding result (human TrkC-His): no binding (tested: up to 10 µg/mL)

B5: anti-TrkB clone 6F04 (antibody, V domains shown)
VH: EVQLVQSGAEVKKPGESLKISCKGSGYSFTSYWIGWVRQMPGKGLEWMGIIYPGDSDTRYSPSFQGQVTISADKSISTAYLQWSSLKASDTAMYYCARGSGGYDYWGQGTLVTVSS
VL: QSVLTQPPSVSVSPGQTASITCSGNKLGDKFVSWYHQRPGQSPVLVIYEDNKRPSGIPERFSGSNSGNTATLTISGTQAMDEGDYYCQTWDVSSYVFGTGTKVTVL
notes: full-length IgG
koff (human TrkB-His): 0.00473 s⁻¹
binding result (mouse TrkB-ECD-GST): binds
TrkB activation (EC50) [1]: 0.035 µg/mL
binding result (human TrkA-His): no binding (tested: up to 10 µg/mL)
binding result (human TrkC-His): no binding (tested: up to 10 µg/mL)

B6: anti-TrkB clone 3E04 (antibody, V domains shown)
VH: EVQLVQSGAEVKKPGESLKISCKGSGYSFTSYWIGWVRQMPGKGLEWMGIIYPGDSDTRYSPSFQGQVTISADKSISTAYLQWSSLKASDTAMYYCASRLLFGDDAFDIWGQGTMVTVSS
VL: SYVLTQPPSVSVSPGQTATITCSGDKLGDEYVSWYQQKPGQSPVLVIYQDSKRPSGIPERFSGSNSGNTATLTISGAQAVDEADYYCQAWDSNAGAFGTGTKLTVL
notes: full-length IgG
koff (human TrkB-His): 0.00534 s⁻¹
binding result (mouse TrkB-ECD-GST): binds
TrkB activation (EC50) [1]: 0.11 µg/mL
binding result (human TrkA-His): no binding (tested: up to 10 µg/mL)
binding result (human TrkC-His): no binding (tested: up to 10 µg/mL)

B7: anti-TrkB clone 6E08 (antibody, V domains shown)
VH: QVQLVQSGGGVVQPGRSLRLSCAASGFTFSSYAMHWVRQAPGKGLEWVAVISYDGSNKYYADSVKGRFTISRDNSKNTLYLQMNSLRAEDTAVYYCARAFRRYDAFDIWGQGTLVTVSS
VL: DIQMTQTPLSLSVTLGQPASISCRSSQGLVYSDGNTYLNWFQQRPGQSPRRLIYKVSNRDSGVPDRFSGSGSGTDFTLKISRVEAEDVGVYYCMQGTHWPPAFGQGTKVEIK
notes: full-length IgG
koff (human TrkB-His): 0.0064 s⁻¹
binding result (mouse TrkB-ECD-GST): binds
TrkB activation (EC50) [1]: 4.2 µg/mL
binding result (human TrkA-His): no binding (tested: up to 10 µg/mL)
binding result (human TrkC-His): no binding (tested: up to 10 µg/mL)

B8: anti-TrkB clone 3F06 (antibody, V domains shown)
VH: QMQLVQSGAEVKKPGESLKISCKGSGYSFSTNWIGWVRQMPGKGLEWMGIIYPGDSDTRYSPSFQGQVTISADKSISTAYLQWSSLKASDTAMYYCARFYDSSGNDYWGQGTLVTVSS
VL: QSVLTQPPSVSVSPGQTASITCSGDKLGDKYASWYQQKPGQSPVLVIFQDNKRPSGIPERFSGSNSGNTATLTISGTQAMDEADYYCQTWDSSTAIFGGGTKLTVL
notes: full-length IgG
koff (human TrkB-His): 0.00479 s⁻¹
binding result (mouse TrkB-ECD-GST): binds
TrkB activation (EC50) [1]: 0.14 µg/mL
binding result (human TrkA-His): no binding (tested: up to 10 µg/mL)
binding result (human TrkC-His): no binding (tested: up to 10 µg/mL)

B9: anti-TrkB clone 3F09 (antibody, V domains shown)
VH: EVQLVQSGAEVKKPGESLKISCKGSGYSFTSYWIGWVRQMPGKGLEWMGIIYPGDSDTRYSPSFQGQVTISADKSISTAYLQWSSLKASDTAMYYCVVRPAAAGTRIDYWGQGTLVTVSS
VL: QSVLTQPPSVSVSPGQTASITCSGDKLGDKYASWYQQKPGQSPVLIIYQDNKRPSGIPERFSGSNSGNTATLTISGTQAMDEADYYCQAWDSSTYVFGTGTKLTVL
notes: full-length IgG
koff (human TrkB-His): 0.00631 s⁻¹
TrkB activation (EC50) [1]: 0.053 µg/mL
binding result (human TrkA-His): no binding (tested: up to 10 µg/mL)
binding result (human TrkC-His): no binding (tested: up to 10 µg/mL)

B10: anti-TrkB clone 1E07 (antibody, V domains shown)
VH: QVQLVQSGAEVKKPGESLRISCKGSGYSFTNNWINWVRQMPGKGLEWMGRIDPDDSYTNYSPSFQGHVIFSADKSSNTVYLQWSSLEASDTAMYYCARRAQGGGGYDYWGQGTLVTVSS
VL: QSVLTQPPSVSGAPGQRVTISCTGSSSNIGAGFNVHWYQQVAGLAPKLLIHDNINRPSGVPDRFSGSKSGASASLTITGLQAEDEADYYCQSYDSSLSGWFAFGTGTKVTVL
notes: full-length IgG
koff (human TrkB-His): 0.00613 s⁻¹
binding result (mouse TrkB-ECD-GST): binds
TrkB activation (EC50) [1]: 0.13 µg/mL
binding result (human TrkA-His): no binding (tested: up to 10 µg/mL)
binding result (human TrkC-His): no binding (tested: up to 10 µg/mL)

B11: anti-TrkB clone 3B09 (antibody, V domains shown)
VH: EVQLVQSGAEVKKPGESLKISCKGSGYSFTSYWIGWVRQMPGKGLEWMGIIYPGDSDTRYSPSFQGQVTISADKSISTAYLQWSSLKASDTAMYYCATPMEDGMDVWGQGTTVTVSS
VL: QAGLTQPPSVSVSPGQTVTITCSADNLGDKYTSWYQQRPGQSPVLVIYQDTKRPSGIPARFSGSNSGNTATLTISGTQAMDEADYYCQAWDSSTGVFGTGTKVTVL
notes: full-length IgG
koff (human TrkB-His): 0.00472 s⁻¹
binding result (mouse TrkB-ECD-GST): binds
TrkB activation (EC50) [1]: 0.094 µg/mL
binding result (human TrkA-His): no binding (tested: up to 10 µg/mL)
binding result (human TrkC-His): no binding (tested: up to 10 µg/mL)

B12: anti-TrkB clone 5C07 (antibody, V domains shown)
VH: QVQLVQSGAEVKKPGESLKISCKGFGYSFTNYWIGWVRQMPGKGLEWMGIIYPGDSDTRYSPSFQGQVTISADKSITTAYLQWSSLKASDTAMYYCASHTKDGTWDIWGQGTMVTVSS
VL: QAGLTQPPSVSVSPGQTASITCSGERLGDKYVSWYQQKPGQSPVLVIYQDDKRPSGVPERFSGSNSGNTATLNISGTQPMDEADYYCQAWDSSTSLYVFGTGTKLTVL
notes: full-length IgG
koff (human TrkB-His): 0.00457 s⁻¹
binding result (mouse TrkB-ECD-GST): binds
TrkB activation (EC50) [1]: 0.47 µg/mL
binding result (human TrkA-His): no binding (tested: up to 10 µg/mL)
binding result (human TrkC-His): no binding (tested: up to 10 µg/mL)

B13: anti-TrkB clone 3A06 (antibody, V domains shown)
VH: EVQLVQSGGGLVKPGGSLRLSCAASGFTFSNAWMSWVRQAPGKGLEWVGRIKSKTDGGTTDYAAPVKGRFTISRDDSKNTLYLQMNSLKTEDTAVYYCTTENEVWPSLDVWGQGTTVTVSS
VL: QSVLTQPPSVSVSPGQTASITCSGDKLGNKYASWYRQKPGQSPVLVIYQDTKRPSGIPERFSGSNSGNTATLTISGTQAMDEGDYYCQAWDSSTAVVFGGGTKLTVL
notes: full-length IgG
koff (human TrkB-His): 0.00453 s⁻¹
binding result (mouse TrkB-ECD-GST): binds
TrkB activation (EC50) [1]: 0.15 µg/mL
binding result (human TrkA-His): no binding (tested: up to 10 µg/mL)
binding result (human TrkC-His): no binding (tested: up to 10 µg/mL)

B14: anti-TrkB clone 3H11 (antibody, V domains shown)
VH: QVQLQQSGPGLVKPSQTLSLTCAISGDSVSSNSAVWNWIRQSPSRGLEWLGRTYYRSKWYTDFAVSVKSRITINPDTSKNQFSLQLNSVTPEDTAVYYCARGRNGMDVWGQGTMVTVST
VL: LPVLTQPPSASGTPGQRVTISCSGSSSNIGHKYVYWYQQLPGAAPKLLIYRNNQRPSGVPDRFSASKSGTSASLAISGLRSEDEADYYCATWDDSLNGVVFGGGTKVTVL
notes: full-length IgG
koff (human TrkB-His): 0.0057 s⁻¹
binding result (mouse TrkB-ECD-GST): binds
TrkB activation (EC50) [1]: 0.02 µg/mL
binding result (human TrkA-His): no binding (tested: up to 10 µg/mL)
binding result (human TrkC-His): no binding (tested: up to 10 µg/mL)

B15: anti-TrkB clone 3C02 (antibody, V domains shown)
VH: QVQLVQSGAEVKKPGESLKISCKGSGYSFTSYWIGWVRQMPGKGLEWMGIIYPGDSDTRYSPSFQGQVTISADKSISTAYLQWSSLKASDTAMYYCARGGPPDYWGQGTLVTVSS
VL: not shown
notes: full-length IgG
koff (human TrkB-His): 0.00494 s⁻¹
binding result (mouse TrkB-ECD-GST): binds
TrkB activation (EC50) [1]: 0.15 µg/mL
binding result (human TrkA-His): no binding (tested: up to 10 µg/mL)
binding result (human TrkC-His): no binding (tested: up to 10 µg/mL)
